Experiments:
[1] = molecular target: EGFR-TEV-NIa-Pro cleavage (Leu)-tTA (human) (UniProt P00533); experiment: cell-based or functional assay
[2] = molecular target: CCR5-tTA fusion construct containing the low efficiency cleavage site (UniProt P51681); experiment: cell-based or functional assay
Chain of UniProt P51681 (P51681 whole entry, the tested form may be a part): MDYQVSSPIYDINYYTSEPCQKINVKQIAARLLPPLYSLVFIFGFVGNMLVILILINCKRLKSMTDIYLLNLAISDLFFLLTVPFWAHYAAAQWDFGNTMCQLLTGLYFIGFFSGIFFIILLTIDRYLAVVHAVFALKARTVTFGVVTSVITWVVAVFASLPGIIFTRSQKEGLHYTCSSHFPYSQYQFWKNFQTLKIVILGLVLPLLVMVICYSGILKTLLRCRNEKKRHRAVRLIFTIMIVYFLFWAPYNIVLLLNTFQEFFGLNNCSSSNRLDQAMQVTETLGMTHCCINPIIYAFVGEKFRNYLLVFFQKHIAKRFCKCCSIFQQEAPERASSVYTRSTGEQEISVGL

Substance	increase of luciferase reporter gene activity at 100 ng/ml ligand, cells co-expressing PLC Gamma1-TEV [1]	induction of β-galactosidase reporter gene expression over background at 1 µg/ml RANTES, clone 34 cells with stable ARRB2-TEV-NIa protease [2]
human Transforming Growth Factor-Alpha (from UniProt P01135 40-89) (ligand)	18.3 fold	–
Regulated on Activation, Normal T-Cell Expressed and Secreted (RANTES) (from UniProt P13501 24-91) (ligand)	–	40 fold

— patent US20070224615A1
